The subject of series [1] is rG1 (5'-Alexa Fluor 647) (RNA, G4) ACCGGGGCAGGGGAAGAGGGGG
Kind of series: fluorescence quenching titration. Conditions: K+ 100 mM (KCl); 10 mM Tris, 5% DMSO; 100 nM RNA; single site fit; apparent.

For series [2], the target named is T1, HNRNPH1 qRRM2-3 (qRRM2-GYR-qRRM3) (UniProt P31943 103-381).
T1 sequence: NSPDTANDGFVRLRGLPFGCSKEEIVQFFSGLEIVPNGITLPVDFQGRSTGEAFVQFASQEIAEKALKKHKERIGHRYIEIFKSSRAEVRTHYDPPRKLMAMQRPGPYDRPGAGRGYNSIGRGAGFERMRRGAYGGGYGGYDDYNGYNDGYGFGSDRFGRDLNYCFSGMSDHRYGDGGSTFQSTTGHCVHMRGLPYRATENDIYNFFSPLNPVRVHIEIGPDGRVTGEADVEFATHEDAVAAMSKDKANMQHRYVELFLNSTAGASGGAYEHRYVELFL
Kind of series: SPR. For orientation: SPR reads the build-up and loss of mass on a sensor chip optically.

The target in series [3] is T2, HNRNPH1 qRRM1 (UniProt P31943 1-102).
T2 sequence: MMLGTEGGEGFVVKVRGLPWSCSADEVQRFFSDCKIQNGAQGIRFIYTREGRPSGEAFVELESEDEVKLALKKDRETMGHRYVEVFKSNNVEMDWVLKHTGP
Kind of series: SPR.

The target of series [4] is T3, HNRNPH1 delta1-103 (UniProt P31943 104-449, del1-103).
T3 sequence: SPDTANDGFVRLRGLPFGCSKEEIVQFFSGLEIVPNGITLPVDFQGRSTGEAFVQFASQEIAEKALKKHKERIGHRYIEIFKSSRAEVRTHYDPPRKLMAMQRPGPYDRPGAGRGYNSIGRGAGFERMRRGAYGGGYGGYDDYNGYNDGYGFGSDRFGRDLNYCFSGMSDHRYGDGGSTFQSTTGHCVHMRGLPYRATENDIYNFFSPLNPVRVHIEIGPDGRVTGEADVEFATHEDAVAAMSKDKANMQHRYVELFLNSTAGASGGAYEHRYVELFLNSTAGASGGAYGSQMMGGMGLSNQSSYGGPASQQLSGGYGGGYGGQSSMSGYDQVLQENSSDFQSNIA
In words: SPR.

Series [5] has as its target T4, HNRNPH1 qRRM3 (UniProt P31943 277-381).
T4 sequence: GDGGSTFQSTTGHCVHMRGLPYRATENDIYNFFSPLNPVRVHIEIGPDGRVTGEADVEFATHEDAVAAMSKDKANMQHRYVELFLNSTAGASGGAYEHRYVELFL
Kind of series: SPR.

Series [6] deals with T5, HNRNPH1 full-length (UniProt P31943 1-449).
T5 sequence: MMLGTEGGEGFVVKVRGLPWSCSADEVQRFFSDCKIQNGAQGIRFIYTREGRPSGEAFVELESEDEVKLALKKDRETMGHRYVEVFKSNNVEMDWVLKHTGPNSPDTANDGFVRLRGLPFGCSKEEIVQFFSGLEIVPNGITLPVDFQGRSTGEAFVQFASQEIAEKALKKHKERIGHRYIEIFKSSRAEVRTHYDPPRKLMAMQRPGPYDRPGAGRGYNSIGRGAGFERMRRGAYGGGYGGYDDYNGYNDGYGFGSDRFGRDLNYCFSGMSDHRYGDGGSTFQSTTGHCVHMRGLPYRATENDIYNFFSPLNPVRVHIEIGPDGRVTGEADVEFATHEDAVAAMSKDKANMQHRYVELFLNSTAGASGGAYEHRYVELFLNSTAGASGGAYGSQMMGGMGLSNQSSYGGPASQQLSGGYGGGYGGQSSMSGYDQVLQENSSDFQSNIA
In words: SPR.

The target of series [7] is T6, HNRNPH1 qRRM2 (UniProt P31943 103-194).
T6 sequence: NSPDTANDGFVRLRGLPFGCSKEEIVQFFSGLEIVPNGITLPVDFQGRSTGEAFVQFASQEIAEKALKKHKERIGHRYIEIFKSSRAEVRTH
In words: SPR.

For series [8], the target named is T7, HNRNPH1 qRRM1-2 (UniProt P31943 1-194).
T7 sequence: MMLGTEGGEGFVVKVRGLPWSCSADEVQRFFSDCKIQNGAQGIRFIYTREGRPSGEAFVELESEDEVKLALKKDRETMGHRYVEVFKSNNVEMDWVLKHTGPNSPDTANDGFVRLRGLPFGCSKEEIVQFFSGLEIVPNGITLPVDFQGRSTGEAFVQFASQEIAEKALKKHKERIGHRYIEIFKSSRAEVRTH
In words: SPR.

For series [9], the target named is T5, HNRNPH1 full-length. In words: EMSA. (In general: A gel shift assay detects complexes by their altered migration in electrophoresis.)
The target in series [10] is T5, HNRNPH1 full-length. In words: antibody-based RNA binding assay.
Series [11] addresses T5, HNRNPH1 full-length. Kind of series: competition.
Series [12] has as its target T5, HNRNPH1 full-length. Kind of series: EMSA. The source holds these as a separate data set.

Like-named read-outs stand apart in the source and are kept apart here.

With `NCCOc1cc(C(=O)Nc2cc(OCCN)c3ccccc3n2)nc(C(=O)Nc2cc(OCCN)c3ccccc3n2)c1`, in [1], the “KD^app” value was determined as 4600 nM.
For ACCGGGGCAGGGGAAGAGGGGG (structured_RNA) [rG1 5'-biotin (SPR)], the Kd (commonly a measure of binding affinity in units of concentration) stood at 97 nM in [2]; 30 nM in series [3]; 2.4 nM in series [4]; 315 nM in [5]; 4.8 nM in series [6]; 22 nM in series [7]. Besides, the affinity in series [8], expressed as Kd, was 1.5 nM.
Turning to GUGGGCGGGGAGGAGGACGCGGUGGAAU (ssRNA) [rG2b], the binding result in series [9] is “binds”.
For ACCGGGGCAGGGGAAGAGGGGGAUU (structured_RNA) [rG1 3'-biotin], in [10], the Kd worked out at 30 ± 2 nM.
For ACCGGGGCAGGGGAAGAGGGGGAUU (structured_RNA) [rG1 nonbiotinylated competitor], the IC50 (usually the concentration that gives 50% inhibition) in series [11] worked out at 84 nM.
As to AGCAGAGGUGGGCGGGGAGGAGGAC (ssRNA) [rG2a], the binding result in series [9] is recorded as “binds”.
Take GAUCGUGGAGGCAUGAGCAGAGGUG (ssRNA) [Linker]: the binding result in series [12] is “no binding”.

The values are drawn from paper PMC6859848 (2019).
